# Measurements taken from publication PMC4881898, “CD14 Is a Co-Receptor for TLR4 in the S100A9-Induced Pro-Inflammatory Response in Monocytes” (PLoS ONE, 2016).
# B1: recombinant human S100A9 (natural protein, UniProt P06702 1-114, looked up)
# chain: MTCKMSQLERNIETIINTFHQYSVKLGHPDTLNQGEFKELVRKDLQNFLKKENKNEKVIEHIMEDLDTNADKQLSFEEFIMLMARLTWASHEKMHEGDEGPGHHHKPGLGEGTP
# notes: S100A9, human, recombinant; The discussion says the recombinant huS100A9 was produced in E. coli; Amine-coupled to the CM5 chip in the SPR experiment; also called huS100A9; source: recombinant, produced at Active Biotech AB, Lund, Sweden
# Biological target: T1, recombinant human CD14 (human, UniProt P08571 20-345)
# T1 construct: CD14, human, recombinant soluble protein from CHO cells; Check this against the vendor data sheet; source: bought: R&D Systems (cat no 383-CD-050/CF), derived from CHO cells
# T1 sequence (looked up): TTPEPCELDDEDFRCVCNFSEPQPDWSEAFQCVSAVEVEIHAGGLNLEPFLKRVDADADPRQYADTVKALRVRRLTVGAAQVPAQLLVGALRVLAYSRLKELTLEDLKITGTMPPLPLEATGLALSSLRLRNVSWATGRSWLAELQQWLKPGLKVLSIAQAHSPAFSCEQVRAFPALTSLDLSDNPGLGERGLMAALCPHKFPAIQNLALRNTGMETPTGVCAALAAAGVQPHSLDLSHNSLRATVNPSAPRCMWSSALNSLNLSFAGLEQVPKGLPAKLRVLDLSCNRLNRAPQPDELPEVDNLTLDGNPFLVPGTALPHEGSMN
# Assay: SPR; Biacore 3000; S100A8 and S100A9 immobilised in separate flow cells on a CM5 chip by amine coupling, to the same level; CD14 injected at 50 to 800 nM for 2 min at 30 ul/min in HBS-P (10 mM HEPES, 0.15 M NaCl, pH 7.4, 0.005% P20) with 1 mM Ca2+ and 20 uM Zn2+; regeneration with 3 mM EDTA; sensorgrams fit to a 1:1 model
# Settings: both partners purified
binder,measurement,value
B1,Kd,100 to 200 nM
